Source: publication PMC4197815

Target: NL2HA-S714A (human) (UniProt Q8NFZ4)
Test: co-IP

UniProt Q8NFZ4, sequence (Q8NFZ4 15-835, stated change not applied): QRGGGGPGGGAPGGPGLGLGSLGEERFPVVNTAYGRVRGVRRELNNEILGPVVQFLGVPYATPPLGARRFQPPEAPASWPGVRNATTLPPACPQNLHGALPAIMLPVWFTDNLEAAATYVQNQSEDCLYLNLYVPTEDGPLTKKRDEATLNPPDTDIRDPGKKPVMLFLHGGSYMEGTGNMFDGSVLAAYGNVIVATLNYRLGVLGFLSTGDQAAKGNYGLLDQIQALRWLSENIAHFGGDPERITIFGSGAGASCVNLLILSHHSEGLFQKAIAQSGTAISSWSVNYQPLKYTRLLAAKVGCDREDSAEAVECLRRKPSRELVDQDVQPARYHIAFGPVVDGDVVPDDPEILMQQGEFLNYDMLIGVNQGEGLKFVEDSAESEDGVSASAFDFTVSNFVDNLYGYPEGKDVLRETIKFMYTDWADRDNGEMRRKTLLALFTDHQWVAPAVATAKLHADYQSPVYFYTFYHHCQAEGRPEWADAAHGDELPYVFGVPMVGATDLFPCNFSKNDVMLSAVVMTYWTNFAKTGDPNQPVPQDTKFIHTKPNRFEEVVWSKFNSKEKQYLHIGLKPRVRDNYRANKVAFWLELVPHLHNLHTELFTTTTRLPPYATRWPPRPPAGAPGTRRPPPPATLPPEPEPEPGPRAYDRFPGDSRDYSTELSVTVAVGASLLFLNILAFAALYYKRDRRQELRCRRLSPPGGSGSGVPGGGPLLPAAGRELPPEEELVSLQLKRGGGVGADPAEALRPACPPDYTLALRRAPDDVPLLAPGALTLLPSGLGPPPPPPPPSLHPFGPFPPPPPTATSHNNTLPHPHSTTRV

B1: gephyrin-FLAG (natural protein)
chain: MATEGMILTNHDHQIRVGVLTVSDSCFRNLAEDRSGINLKDLVQDPSLLGGTISAYKIVPDEIEEIKETLIDWCDEKELNLILTTGGTGFAPRDVTPEATKEVIEREAPGMALAMLMGSLNVTPLGMLSRPVCGIRGKTLIINLPGSKKGSQECFQFILPALPHAIDLLRDAIVKVKEVHDELEDLPSPPPPLSPPPTTSPHKQTEDKGVQCEEEEEEKKDSGVASTEDSSSSHITAAALAAKIPDSIISRGVQVLPRDTASLSTTPSESPRAQATSRLSTASCPTPKVQSRCSSKENILRASHSAVDITKVARRHRMSPFPLTSMDKAFITVLEMTPVLGTEIINYRDGMGRVLAQDVYAKDNLPPFPASVKDGYAVRAADGPGDRFIIGESQAGEQPTQTVMPGQVMRVTTGAPIPCGADAVVQVEDTELIRESDDGTEELEVRILVQARPGQDIRPIGHDIKRGECVLAKGTHMGPSEIGLLATVGVTEVEVNKFPVVAVMSTGNELLNPEDDLLPGKIRDSNRSTLLATIQEHGYPTINLGIVGDNPDDLLNALNEGISRADVIITSGGVSMGEKDYLKQVLDIDLHAQIHFGRVFMKPGLPTTFATLDIDGVRKIIFALPGNPVSAVVTCNLFVVPALRKMQGILDPRPTIIKARLSCDVKLDPRPEYHRCILTWHHQEPLPWAQSTGNQMSSRLMSMRSANGLLMLPPKTEQYVELHKGEVVDVMVIGRL
increase of co-precipitated gephyrin-FLAG against NL2HA: 140%
